Results reported in patent US20120121596A1 (published 2012).
Changes are numbered by the printed parent chain.

T1: HER4-ECD-Fc (human, UniProt Q15303 26-651, limits assumed)
T1 construct: extracellular domain
T1 sequence (looked up): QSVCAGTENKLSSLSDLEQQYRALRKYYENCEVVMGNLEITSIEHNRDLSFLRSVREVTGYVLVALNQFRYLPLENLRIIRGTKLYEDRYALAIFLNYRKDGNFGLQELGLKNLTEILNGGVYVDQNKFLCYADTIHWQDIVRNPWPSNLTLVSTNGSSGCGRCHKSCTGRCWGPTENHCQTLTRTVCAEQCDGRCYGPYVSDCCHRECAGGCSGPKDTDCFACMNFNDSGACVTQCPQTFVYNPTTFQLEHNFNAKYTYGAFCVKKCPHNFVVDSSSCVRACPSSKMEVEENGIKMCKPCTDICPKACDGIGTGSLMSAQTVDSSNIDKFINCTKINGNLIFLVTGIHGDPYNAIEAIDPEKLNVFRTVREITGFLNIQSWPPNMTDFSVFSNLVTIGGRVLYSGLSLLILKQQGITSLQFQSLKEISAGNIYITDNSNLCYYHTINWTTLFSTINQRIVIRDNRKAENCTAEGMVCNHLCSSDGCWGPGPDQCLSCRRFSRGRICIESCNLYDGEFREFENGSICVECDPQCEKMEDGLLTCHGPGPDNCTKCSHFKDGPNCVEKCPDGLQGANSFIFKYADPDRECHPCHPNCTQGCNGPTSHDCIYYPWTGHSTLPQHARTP

B1: D1.5-103 (phage-displayed Fab clone) (Fab, V domains shown)
VH: EVQLVESGGGLVQPGGSLRLSCAASGFTFTGNWIHWVRQAPGKGLEWVGEISPSGGYTDYADSVKGRFTISADTSKNTAYLQMNSLRAEDTAVYYCARESRVSYEAAMDYWGQGTLVTVSS
VL: DIQMTQSPSSLSASVGDRVTITCRASQALGDSENGYADVAWYQQKPGKAPKLLIYEGSSLYSGVPSRFSGSGSGTDFTLTISSLQPEDFATYYCQQAAPSPYTFGQGTKVEIKR
notes: EGFR/HER3 clone
B2: D1.5-116 (phage-displayed Fab clone) (Fab, V domains shown)
VH: B1 VH
VL: DIQMTQSPSSLSASVGDRVTITCRASQAIASDVAWYQQKPGKAPKLLIYSASFLYSGVPSRFSGSGSGTDFTLTISSLQPEDFATYYCQQSEPEPYTFGQGTKVEIKR
notes: EGFR/HER3 clone
B3: D1.5-122 (phage-displayed Fab clone) (Fab, V domains shown)
VH: B1 VH
VL: B2 VL with A28N, F53S, E92D
notes: EGFR/HER3 clone
B4: D1.5-115 (phage-displayed Fab clone) (Fab, V domains shown)
VH: B1 VH
VL: B2 VL with A28E, A30F, S31P, F53S, S91A, E92A, E94T
notes: EGFR/HER3 clone
B5: D1.5-121 (phage-displayed Fab clone) (Fab, V domains shown)
VH: B1 VH
VL: B2 VL with A28D, I29V, A30G, V33L, F53Y, E92D
notes: EGFR/HER3 clone
B6: D1.5-115 (mIgG2A) (bispecific antibody, V domains shown)
VH: B1 VH
VL: B2 VL with A28E, A30F, S31P, F53S, S91A, E92A, E94T
B7: D1.5-100 (mIgG2A) (bispecific antibody, V domains shown)
VH: B1 VH
VL: B2 VL with A28D, I29L, S31T
notes: also called anti-EGFR/HER3 antibody D1.5-100
B8: D1.5-103 (mIgG2A) (bispecific antibody, V domains shown)
VH: B1 VH
VL: B1 VL
B9: D1.5-113 (mIgG2A) (bispecific antibody, V domains shown)
VH: B1 VH
VL: DIQMTQSPSSLSASVGDRVTITCRASQSLLASHDGTPWVAWYQQKPGKAPKLLIYDASYLYSGVPSRFSGSGSGTDFTLTISSLQPEDFATYYCQQSTFAPYTFGQGTKVEIKR
B10: D1.5-116 (mIgG2A) (bispecific antibody, V domains shown)
VH: B1 VH
VL: B2 VL
B11: D1.5-121 (mIgG2A) (bispecific antibody, V domains shown)
VH: B1 VH
VL: B2 VL with A28D, I29V, A30G, V33L, F53Y, E92D
B12: D1.5-122 (mIgG2A) (bispecific antibody, V domains shown)
VH: B1 VH
VL: B2 VL with A28N, F53S, E92D

Each binder was assayed against T2, hEGFR-ECD (human, UniProt P00533 25-645) (assay: direct phage ELISA, proteins coated at 2 µg/ml, phage-Fab supernatant, OD450;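 also: specificity test of dual-activity clones, with binding assessed across an antigen panel to check whether each recognises only its cognate target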).
T2 construct: extracellular domain
Description: (§1) To determine if the nine clones with dual activities were specific to their cognate targets, their binding to a panel of antigens in a direct plate ELISA format was evaluated.
(§2) 2 μg/ml of several proteins were coated on immunoplates overnight at 4° C.

Binder | binding result
B1 | binds
B2 | binds
B3 | binds
B4 | binds
B5 | binds

The binders below were run against T3, HER3-ECD-Fc (human, UniProt P21860 20-643, limits assumed) in the same assay as above.
T3 construct: extracellular domain; also called HER3-FC; HER3-IgG
Description: as §1, §2

Binder | binding result
B2 | binds
B4 | binds
B5 | binds

Each binder was assayed against T4, Erbitux in the same assay as above.
T4 construct: also called cetuximab; C225; not shown: the constant regions

Binder | binding result
B1 | no binding
B2 | no binding
B4 | no binding
B5 | no binding

Each binder was assayed against T5, BSA (bovine, UniProt P02769) in the same assay as above.
T5 construct: also called bovine serum albumin
T5 sequence (P02769 25-607 limits assumed): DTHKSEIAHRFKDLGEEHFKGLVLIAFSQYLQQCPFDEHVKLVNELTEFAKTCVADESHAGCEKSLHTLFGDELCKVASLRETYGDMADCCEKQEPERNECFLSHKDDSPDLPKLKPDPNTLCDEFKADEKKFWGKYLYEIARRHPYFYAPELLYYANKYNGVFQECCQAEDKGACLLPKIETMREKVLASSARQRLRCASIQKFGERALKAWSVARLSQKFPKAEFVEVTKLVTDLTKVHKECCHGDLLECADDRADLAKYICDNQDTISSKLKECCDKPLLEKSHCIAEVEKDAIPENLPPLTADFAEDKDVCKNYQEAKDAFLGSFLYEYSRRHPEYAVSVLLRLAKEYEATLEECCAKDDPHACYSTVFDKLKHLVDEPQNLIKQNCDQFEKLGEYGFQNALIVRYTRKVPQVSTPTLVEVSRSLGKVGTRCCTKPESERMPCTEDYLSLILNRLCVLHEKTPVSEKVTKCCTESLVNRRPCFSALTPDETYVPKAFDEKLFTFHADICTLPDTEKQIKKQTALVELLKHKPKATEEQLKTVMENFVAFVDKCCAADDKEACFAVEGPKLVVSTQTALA
Description: as §1, §2

Binder | binding result
B1 | no binding
B2 | no binding
B3 | no binding
B4 | no binding
B5 | no binding

The binders below were run against T1, HER4-ECD-Fc in the same assay as above.
Description: as §1, §2

Binder | binding result
B1 | no binding
B2 | no binding
B3 | no binding
B4 | no binding
B5 | no binding

What follows are binders tested against T6, HER2-ECD (human, UniProt P04626 23-652) in the same assay as above.
T6 construct: extracellular domain
Description: as §1, §2

Binder | binding result
B1 | no binding
B2 | no binding
B3 | no binding
B4 | no binding
B5 | no binding

What follows are binders tested against T3, HER3-ECD-Fc (assay: competition with 125I-HRG for HER3-ECD-Fc captured on anti-human antibody plates, antibody pre-bound, counts as % of control).
Description: Binding assays were performed in Nunc break-apart strip wells. Plates were coated at 4° C. overnight with 100 μl of 5 mg/mL goat anti-human Ab in 50 mM carbonate buffer (pH 9.6). Plates were rinsed twice with wash buffer (PBS/0.005% Tween20) and blocked with 100 μl 1% BSA/PBS for 30 min. Buffer was removed and each well was incubated with 200 ng of HER3-ECD-Fc in 1% BSA/PBS for 1.5 h. […] Plates were rinsed three times and individual wells were counted using a 100 Series Iso Data γ-counter.

Binder | binding result | IC50 (read off the curve) [nM]
B6 | binds | 
B7 |  | ~2
B8 |  | ~3
B9 | binds | 
B10 | binds | 
B11 | binds | 
B12 |  | ~3
